Measured values taken from patent US20220127354A1 (Amgen, published 2022).

Target: T1, muCDH19(44-770) with Flag tag (construct I, Mu EC1-5) (mouse)
T1 construct: leader left out; the entry starts at residue 44; also called Mo EC1-5; mouse Cadherin19
T1 chain: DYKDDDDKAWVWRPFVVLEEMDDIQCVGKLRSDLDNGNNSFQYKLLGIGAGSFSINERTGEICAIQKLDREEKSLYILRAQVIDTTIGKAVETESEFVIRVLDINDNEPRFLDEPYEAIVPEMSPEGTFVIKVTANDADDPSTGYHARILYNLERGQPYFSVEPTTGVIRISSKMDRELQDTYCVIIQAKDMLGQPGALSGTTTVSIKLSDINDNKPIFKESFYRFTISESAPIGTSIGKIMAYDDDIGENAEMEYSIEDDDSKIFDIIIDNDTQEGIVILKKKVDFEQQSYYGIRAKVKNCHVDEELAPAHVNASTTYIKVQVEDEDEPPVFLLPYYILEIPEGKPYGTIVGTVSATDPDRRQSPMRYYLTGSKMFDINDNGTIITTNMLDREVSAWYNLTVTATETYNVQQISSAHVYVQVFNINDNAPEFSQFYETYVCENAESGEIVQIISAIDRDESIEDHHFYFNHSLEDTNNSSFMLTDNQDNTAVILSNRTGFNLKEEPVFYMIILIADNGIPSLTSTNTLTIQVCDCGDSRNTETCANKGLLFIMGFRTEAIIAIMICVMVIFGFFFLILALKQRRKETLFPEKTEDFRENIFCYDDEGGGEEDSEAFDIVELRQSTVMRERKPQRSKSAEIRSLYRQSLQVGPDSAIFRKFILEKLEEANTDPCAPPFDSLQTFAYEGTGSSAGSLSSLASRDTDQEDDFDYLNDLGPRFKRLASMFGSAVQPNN
Test: flow cytometry, transfected 293T cells
Description: The experiment included assaying the anti-CDH19 antibodies against mouse Cadherin19 to determine suitability for binning on these human/mouse chimeras.

B1: anti-CDH19 antibody 2G6 (Ab ID 13588) (antibody, human IgG1, lambda, V domains shown)
VH: QVQLVESGGGVVQPGRSLRLSCAASGFTFSSYGMHWVRQAPGKGLEWVAFIWYDGSNKYYADSVKDRFTISRDNSKNTLYLQMKSLRAEDTAVYYCARRAGIIGTIGYYYGMDVWGQGTTVTVSS
VL: SYELTQPPSVSVSPGQTASITCSGDRLGEKYTCWYQQRPGQSPLLVIYQDTKRPSGIPERFSGSNSGNTATLTISGTQAMDEADYYCQAWDSSTVVFGGGTKLTVLG
notes: Bin 4
binding result: binds
